Laboratory results: the Human Domainome abundance scans (Beltran et al. 2025)
± gives the uncertainty stated by the source.

B1: Transcription elongation factor A N-terminal and central domain-containing protein, residues 30 to 77; numbered along this chain, Q8N8B7 (parent)
chain: LTELETIYVTKEHLQETDVVRAVYRVLKNCPSVALKKKAKCLLSKWKA

Variants of: B1
Assay: abundance fitness (aPCA) (normalised: wild type 0, dead -1); higher = more abundant; growth selection in yeast, the domain comes from the species named
Conditions: Homo sapiens

Compared with LTELETIYVTKEHLQETDVVRAVYRVLKNCPSVALKKKCKCLLSKWKA [A39C], LTELETIYVTKEHLQETDVVRAVYRVLKNCPSVALKKKKKCLLSKWKA [A39K] is lower in abundance fitness: 0.072 ± 0.12 for the first, -0.883 ± 0.35 for the second.

Compared with LTELETIYVTKEHLQETDVVRAVYRVLKNCPSVALKKKIKCLLSKWKA [A39I], LTELETIYVTKEHLQETDVVRAVYRVLKNCPSVALKKKDKCLLSKWKA [A39D] is lower in abundance fitness: 0.2 ± 0.18 for the first, -0.826 ± 0.19 for the second.

Compared with LTELETIYVTKEHLQETDVVRAVYRVLKNCPSVALKKKEKCLLSKWKA [A39E], LTELETIYVTKEHLQETDVVRAVYRVLKNCPSVALKKKGKCLLSKWKA [A39G] is higher in abundance fitness: -0.972 ± 0.16 for the first, -0.576 ± 0.064 for the second.

LTELETIYVTKEHLQETDVVRAVYRVLKNCPSVFLKKKAKCLLSKWKA [A34F] and LTELETIYVTKEHLQETDVVRAVYRVLKNCPSVCLKKKAKCLLSKWKA [A34C] are within error of each other in abundance fitness: -0.305 ± 0.32 for the first, 0.149 ± 0.18 for the second.

First: LTELETIYVTKEHLQETDVVRAVYRVLKNCPSVLLKKKAKCLLSKWKA [A34L]
Second: LTELETIYVTKEHLQETDVVRAVYRVLKNCPSVVLKKKAKCLLSKWKA [A34V]
The abundance fitness of the first is higher: -0.279 ± 0.099 for the first, -0.489 ± 0.096 for the second.

LTELETIYVTKEHLQETDVVRAVYRVLKNCPSVYLKKKAKCLLSKWKA [A34Y] and LTELETIYVTKEHLQETDVVRAVYRVLKNCPSVELKKKAKCLLSKWKA [A34E] are within error of each other in abundance fitness: -0.174 ± 0.24 for the first, -0.308 ± 0.1 for the second.

LTELETIYVTKEHLQETDVVRAVYRVLKNCPSVPLKKKAKCLLSKWKA [A34P] and LTELETIYVTKEHLQETDVVRAVYRVLKNCPSVTLKKKAKCLLSKWKA [A34T] are within error of each other in abundance fitness: -0.378 ± 0.12 for the first, -0.161 ± 0.12 for the second.

First: LTELETIYVTKEHLQETDVVRAVYRVLKNCPSVWLKKKAKCLLSKWKA [A34W]
Second: LTELETIYVTKEHLQETDVVRAVYRVLKNCPSVDLKKKAKCLLSKWKA [A34D]
The abundance fitness of the first is lower: -0.176 ± 0.12 for the first, 0.097 ± 0.13 for the second.

LTELETIYVTKEHLQETDVVRAVYRVLKNCPSVMLKKKAKCLLSKWKA [A34M] and LTELETIYVTKEHLQETDVVRAVYRVLKNCPSVGLKKKAKCLLSKWKA [A34G] are within error of each other in abundance fitness: -0.163 ± 0.14 for the first, -0.028 ± 0.075 for the second.

LTELETIYVTKEHLQETDVVRAVYRVLKNCPSVHLKKKAKCLLSKWKA [A34H] and LTELETIYVTKEHLQETDVVRAVYRVLKNCPSVKLKKKAKCLLSKWKA [A34K] are within error of each other in abundance fitness: -0.057 ± 0.23 for the first, 0.148 ± 0.1 for the second.

Compared with LTELETIYVTKEHLQETDVVRAVYRVLKNCPSVQLKKKAKCLLSKWKA [A34Q], LTELETIYVTKEHLQETDVVRAVYRVLKNCPSVNLKKKAKCLLSKWKA [A34N] is higher in abundance fitness: -0.464 ± 0.15 for the first, 0.266 ± 0.17 for the second.

Compared with LTELETIYVTKEHLQETDVVRAVYRVLKNCPSVILKKKAKCLLSKWKA [A34I], LTELETIYVTKEHLQETDVVRAVYRVLKNCPSWALKKKAKCLLSKWKA [V33W] is higher in abundance fitness: -0.826 ± 0.35 for the first, -0.096 ± 0.08 for the second.

LTELETIYVTKEHLQETDVVRAVYRVLKNCPSNALKKKAKCLLSKWKA [V33N] and LTELETIYVTKEHLQETDVVRAVYRVLKNCPSDALKKKAKCLLSKWKA [V33D] are within error of each other in abundance fitness: -0.279 ± 0.2 for the first, -0.086 ± 0.11 for the second.

LTELETIYVTKEHLQETDVVRAVYRVLKNCPSQALKKKAKCLLSKWKA [V33Q] and LTELETIYVTKEHLQETDVVRAVYRVLKNCPSSALKKKAKCLLSKWKA [V33S] are within error of each other in abundance fitness: 0.007 ± 0.097 for the first, 0.089 ± 0.09 for the second.

Compared with LTELETIYVTKEHLQETDVVRAVYRVLKNCPSGALKKKAKCLLSKWKA [V33G], LTELETIYVTKEHLQETDVVRAVYRVLKNCPSHALKKKAKCLLSKWKA [V33H] is lower in abundance fitness: 0.012 ± 0.068 for the first, -0.527 ± 0.2 for the second.

LTELETIYVTKEHLQETDVVRAVYRVLKNCPSTALKKKAKCLLSKWKA [V33T] and LTELETIYVTKEHLQETDVVRAVYRVLKNCPSCALKKKAKCLLSKWKA [V33C] are within error of each other in abundance fitness: -0.146 ± 0.1 for the first, 0.041 ± 0.12 for the second.

LTELETIYVTKEHLQETDVVRAVYRVLKNCPSAALKKKAKCLLSKWKA [V33A] and LTELETIYVTKEHLQETDVVRAVYRVLKNCPSPALKKKAKCLLSKWKA [V33P] are within error of each other in abundance fitness: -0.016 ± 0.081 for the first, 0.129 ± 0.11 for the second.

LTELETIYVTKEHLQETDVVRAVYRVLKNCPSMALKKKAKCLLSKWKA [V33M] and LTELETIYVTKEHLQETDVVRAVYRVLKNCPSEALKKKAKCLLSKWKA [V33E] are within error of each other in abundance fitness: -0.027 ± 0.1 for the first, -0.208 ± 0.093 for the second.

LTELETIYVTKEHLQETDVVRAVYRVLKNCPSLALKKKAKCLLSKWKA [V33L] and LTELETIYVTKEHLQETDVVRAVYRVLKNCPSRALKKKAKCLLSKWKA [V33R] are within error of each other in abundance fitness: 0.174 ± 0.087 for the first, 0.155 ± 0.064 for the second.

Compared with LTELETIYVTKEHLQETDVVRAVYRVLKNCPSFALKKKAKCLLSKWKA [V33F], LTELETIYVTKEHLQETDVVRAVYRVLKNCPSYALKKKAKCLLSKWKA [V33Y] is lower in abundance fitness: 0.427 ± 0.33 for the first, -0.327 ± 0.16 for the second.

First: LTELETIYVTKEHLQETDVVRAVYRVLKNCPPVALKKKAKCLLSKWKA [S32P]
Second: LTELETIYVTKEHLQETDVVRAVYRVLKNCPVVALKKKAKCLLSKWKA [S32V]
The abundance fitness of the first is lower: 0.039 ± 0.1 for the first, 0.289 ± 0.13 for the second.

Going from LTELETIYVTKEHLQETDVVRAVYRVLKNCPKVALKKKAKCLLSKWKA [S32K] to LTELETIYVTKEHLQETDVVRAVYRVLKNCPIVALKKKAKCLLSKWKA [S32I], the abundance fitness rises from -0.155 ± 0.078 to 0.27 ± 0.13.

LTELETIYVTKEHLQETDVVRAVYRVLKNCPHVALKKKAKCLLSKWKA [S32H] and LTELETIYVTKEHLQETDVVRAVYRVLKNCPCVALKKKAKCLLSKWKA [S32C] are within error of each other in abundance fitness: 0.131 ± 0.24 for the first, 0.367 ± 0.12 for the second.

First: LTELETIYVTKEHLQETDVVRAVYRVLKNCPQVALKKKAKCLLSKWKA [S32Q]
Second: LTELETIYVTKEHLQETDVVRAVYRVLKNCPLVALKKKAKCLLSKWKA [S32L]
The abundance fitness of the first is lower: -0.439 ± 0.32 for the first, 0.355 ± 0.089 for the second.

LTELETIYVTKEHLQETDVVRAVYRVLKNCPNVALKKKAKCLLSKWKA [S32N] and LTELETIYVTKEHLQETDVVRAVYRVLKNCPRVALKKKAKCLLSKWKA [S32R] are within error of each other in abundance fitness: -0.017 ± 0.13 for the first, 0.022 ± 0.072 for the second.

Compared with LTELETIYVTKEHLQETDVVRAVYRVLKNCPTVALKKKAKCLLSKWKA [S32T], LTELETIYVTKEHLQETDVVRAVYRVLKNCPFVALKKKAKCLLSKWKA [S32F] is higher in abundance fitness: -0.022 ± 0.094 for the first, 0.211 ± 0.13 for the second.

Compared with LTELETIYVTKEHLQETDVVRAVYRVLKNCPAVALKKKAKCLLSKWKA [S32A], LTELETIYVTKEHLQETDVVRAVYRVLKNCPDVALKKKAKCLLSKWKA [S32D] is lower in abundance fitness: 0.103 ± 0.15 for the first, -0.389 ± 0.27 for the second.
